In paper PMC4621449:

Molecular target: SO_3165 antitoxin (MNT family), SO_3165-CHis (Shewanella oneidensis (MR-1)) (UniProt Q8ECH7)
Assay: EMSA
Conditions: 10 mM HEPES pH 7.3, 20 mM KCl, 1 mM MgCl2, 5% glycerol, NP-40, poly dI-dC, 25 C, 1 h; 0.05 pmol biotin-DNA; 6% gel in 0.5x TBE

SO_3165 antitoxin (MNT family), SO_3165-CHis (Shewanella oneidensis (MR-1)), sequence (Q8ECH7 whole entry): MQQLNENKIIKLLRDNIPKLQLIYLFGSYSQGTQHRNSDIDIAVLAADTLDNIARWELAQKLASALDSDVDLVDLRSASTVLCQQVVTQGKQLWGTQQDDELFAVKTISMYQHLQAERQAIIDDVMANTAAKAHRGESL

With “TACGAGGCCAGAATTTAAAAGCGCAGCCGTCAGAAATGCAGCGATTAGAAGAAGTTGAAACTTCCGATGCAACCTCTTCAGACGCTGAACTACCAATACTTAAGCACACACATATAGAAAACCCGTCCCTACTATACCATAAACAATGTCAGGTACTGCGTATCGTTATAGAATGCACTAAAAAGTTCTAGATTAGAGCCACACAGTGGCGTCTTCAAAACCTGTGTCCGTCCTTTTGGCTCCGCCTTAATATGCTATATACTCATCCCGTATTCATCAAATCGTGCAATGGACCT (double strand) [PSO_3165-3166 promoter]” the binding was “binds”.
